For two molecules, αβ2 production with IX-TM (% of Ibβ-TM) and αβ2 production (% of Ibβ-TM) results are on record in paper PMC2563799.

Holding throughout (assay): thiol-disulfide exchange
Assay [1] has as its target (Ibβ-TM)-SS-(Ibα-TM)-SS-(Ibβ-TM) peptide complex (human).
Assay [2] shares this target. This is another data set of the same source.
Assay [3] shares this target. The source holds these as a separate data set.
The target of assay [4] is Ibα-TM (human).
Assay [5] has as its target Ibα-TM (human). The source holds these as a separate data set.
The target of assay [6] is Ibα-TM (human). This is another data set of the same source.

Read-outs that look alike come from different tables or passages of the source.

Regarding GSVRPGVLWDVALVAVAALGLALLAGLLNATTEALD [IX-TM], the αβ2 production with IX-TM (% of Ibβ-TM) in assay [1] is 29.4 % of Ibβ-TM; in assay [2], 41.2 % of Ibβ-TM; in assay [3] it was 32.8 % of Ibβ-TM.

B1: Ibβ-TM (peptide)
chain: GSGGGLCWGALAAQLALLGLGLLHALLLVLLLSRLRRLRARARARAAARLSLTDPLVAERAGTDES
For B1, the αβ2 production (% of Ibβ-TM) was 20.5 % of Ibβ-TM in the assay with Ibα-TM (human) [4], 13.5 % of Ibβ-TM with Ibα-TM (human) [5] and 27.7 % of Ibβ-TM with Ibα-TM (human) [6].
